Where only a bound is given, the exact number is not on record here.

Series [1] deals with LSR. Put plainly: 125I-chylomicron binding to primary rat hepatocytes. The series is classed as cell-based. The note with it: 20 ng/mL leptin with 0.5 mM oleate. The method, then: FIGS. 6A, 6B, and 6C show the effect of leptin on ^125I-LDL and ^125I-chylomicron binding to LSR in primary cultures of rat hepatocytes. For FIG. 6A, primary cultures of rat hepatocytes (48 hours after plating) were incubated at 37° C. for 30 min in the absence (□) or presence (▪) of 50 ng/mL leptin in Buffer A, followed by a 20 min incubation at 37° C. with 0.5 mM oleate. The cells were then washed with ice-cold PBS, precooled for 10 min, and then incubated for 1 h at 4° C. with increasing concentrations of ^125I-LDL in Buffer A. Cells were washed, were lysed in 0.1 N NaOH and were counted for radioactivity. Results are shown as the mean of duplicate determinations. For FIG. 6B, primary cultures of rat hepatocytes were incubated at 37° C. for 30 min with or without 20 ng/mL leptin followed by incubation at 37° C. for 4 h with 6 μg protein/mL ^125I-chylomicrons in the absence or presence of 0.5 mM oleate in Buffer A. The cells were then washed and the ^125I-chylomicrons bound to the cell surface were released into the media by incubation with 10 mM suramin. The media was recovered and the radioactivity was measured. Results are shown as the mean±SD of six determinations. […] The amount of ^125I-chylomicrons bound was determined, and results are shown as means±SD of triplicate (irrelevant) or quadruplicate (anti-LSR) determinations. […]

In series [2] the test system is LSR. The experiment in a line: 125I-leptin degradation in PLC cells. The series is classed as cell-based, human. The note with it: PLC cells, 2 h incubation.
In the next series the target is T1, LSR β (Homo sapiens, UniProt Q86X29).
T1 construct: The full-length LSR α, α′, and β clones were reconstructed in pTracer-CMV2 vector; expressed in transfected cells; host or cells: CHO-K1, transient (Fugene), pTracer-CMV2
T1 sequence (Q86X29 1-581 isoform Q86X29-5): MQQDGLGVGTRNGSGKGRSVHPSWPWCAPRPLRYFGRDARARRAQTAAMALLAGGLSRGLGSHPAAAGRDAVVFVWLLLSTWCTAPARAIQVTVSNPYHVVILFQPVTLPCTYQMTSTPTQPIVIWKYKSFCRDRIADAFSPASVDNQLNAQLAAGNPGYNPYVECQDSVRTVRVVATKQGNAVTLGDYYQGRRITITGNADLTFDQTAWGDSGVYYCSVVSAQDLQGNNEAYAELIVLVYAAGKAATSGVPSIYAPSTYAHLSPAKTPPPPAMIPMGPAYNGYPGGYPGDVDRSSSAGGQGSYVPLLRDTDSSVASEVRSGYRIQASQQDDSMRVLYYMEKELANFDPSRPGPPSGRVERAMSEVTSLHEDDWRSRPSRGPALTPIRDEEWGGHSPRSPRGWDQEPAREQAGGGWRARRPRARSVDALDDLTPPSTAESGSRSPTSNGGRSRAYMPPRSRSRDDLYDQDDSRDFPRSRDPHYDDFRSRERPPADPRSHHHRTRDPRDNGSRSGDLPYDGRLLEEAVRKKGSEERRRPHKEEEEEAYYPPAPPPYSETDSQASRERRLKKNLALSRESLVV
Put plainly: 125I-leptin binding in CHO-K1 cells transiently transfected with LSR β. The series is classed as cell-based. As to conditions: transient transfection with LSR β plasmid; 10 ng/mL 125I-leptin. The method, then:
FIGS. 3A, 3B, 3C, and 3D show the effect of LSR subunit transfection on leptin binding and degradation in CHO-K1 cells. For FIG. 3A, CHO-K1 cells were transfected with increasing concentrations of the α, (□), α′ (▪) or β (◯) LSR plasmid, or vector alone (●) using Fugene transfection reagent. After 48 h, the cells were washed once in PBS and incubated at 37° C. for 2 h with 10 ng/mL of ^125I-leptin in DMEM containing 0.2% (w/v) BSA, 2 mM CaCl2 and 5 mM HEPES, pH 7.4 (Buffer A). The monolayers were washed and lysed with 0.1 N NaOH containing 0.24 mM EDTA, and the lysates were counted. The results are shown as the amount of cell-associated ^125I-leptin. For FIG. 3B, lysates were prepared from CHO-K1 wild type, stable transfectants of vector or LSR α′ subunit, and PLC, and separated on a 10% SDS-polyacrylamide gel under denaturing and reduced conditions. After transfer to nitrocellulose, Western blots were performed using anti-LSR 170 antibody (can also be done with the human equivalent, 93A). […] For FIGS. 3C and 3D, confluent monolayers of stable-transfected cell lines expressing LSR α′ subunit (▪) or vector alone (●) were washed once in PBS and incubated at 37° C. for 2 h with increasing concentrations of ^125I-leptin in Buffer A. The amount of cell-associated (FIG. 3C) and degraded (FIG. 3D) ^125I-leptin was then measured as described herein. […]

On to “leptin: plasma protein of 16 kDa produced by adipocytes; recombinant human or mouse leptin, species depends on the experiment”, for which, in the series with LSR [1], the “binding of chylomicrons to rat hepatocytes” value is “additive stimulatory effect”. Further, the “leptin concentration at which 125I-leptin degradation saturated” value in the series on LSR [2] is recorded as at least 10 ng/mL. Further, the “Leptin binding to CHO-K1 cells” value with LSR β is reported as “remained at levels similar to those seen with the vector alone”.

For the origin of these results see US7470669B2, “Isolated polypeptide comprising a leptin fragment” (Serono Genetics Institute, S.A., priority 1999, dated 2008).
